Experimental data reported in US7507716B2, “Method for treating pain with prolactin antagonists” (Board of Regents, The University of Texas System, priority 2005, dated 2009).

Tested on: TG neurons
Test: Patch clamp, heat-evoked currents (Iheat)
Format: cell-based, rat
Conditions: neurons from intact female rats
Description: TRPV1 is known to be activated by noxious heat (>42° C). Furthermore, this effect is itself sensitized by hyperalgesic agents such as bradykinin (Cesare et al., 1999) and NGF (Chuang et al., 2001; Zhu et al., 2004). To determine whether PRL sensitizes heat-evoked currents (Iheat), the effect that pre-treatment of intact female rat TG neurons with PRL has on Iheat was examined. […] Data are presented as mean±SEM (n=8-12/group, ***=p<0.001 versus vehicle control; two-tailed unpaired T test). […] (FIG. 6B) and 48° C. (FIG. 6C). Data are presented as mean±SEM (n=8-12/group, ***=p<0.001 versus vehicle control; two-tailed unpaired T test). FIG. 6D and FIG. 6E are representative traces of Iheat recordings from TG neurons pretreated with PRL or vehicle (6D); and plotting Iheat as a function of temperature (FIG. 6E). PRL lowered the activation temperature threshold and increased the magnitude of Iheat. In addition, the magnitude of the Iheat evoked at 43° C. (I43) and 48° C. (I48) points in neurons pretreated with prolactin or vehicle was measured.
Patch Clamp Electrophysiology: All recordings were performed in whole-cell voltage-clamp (Vh=−60 mV) configuration. Recordings were acquired at 22-24° C. from the somata of neurons (15-45 pF) using an Axopatch200B amplifier and pCLAMP9.0 software (Axon Instruments, Union City, Calif.). Data were filtered at 0.5 kHz and sampled at 2 kHz. Borosilicate pipettes (Sutter, Novato, Calif.) were polished to resistances of 3-5 MΩ in pipette solution. Access resistance was compensated (40-80%) to 7-10 MΩ values when appropriate. Cell diameters were calculated using d=√[100*Cm/π], where d (μm) is cell diameter and Cm (pF) is membrane capacitance.
For the recording of heat-activated currents (Iheat), SES was heated on-line by a Peltier device (Warner Instruments, Hamden, Conn.) and locally delivered via a glass tube positioned in close proximity to the neuron. Temperature values were acquired with a thermister probe (0.5-1.5 mm size; Harvard Apparatus, Holliston, Mass.) situated at the orifice of the glass tube for local delivery of heated SES. […]

B1: PRL: Ovine PRL [oPRL-21, BIO] provided by NHPP; prolactin polypeptide hormone (protein, UniProt P01240 31-229, looked up)
Prolactin: TPVCPNGPGNCQVSLRDLFDRAVMVSHYIHNLSSEMFNEFDKRYAQGKGFITMALNSCHTSSLPTPEDKEQAQQTHHEVLMSLILGLLRSWNDPLYHLVTEVRGMKGVPDAILSRAIEIEEENKRLLEGMEMIFGQVIPGAKETEPYPVWSGLPSLQTKDEDARHSAFYNLLHCLRRDSSKIDTYLKLLNCRIIYNNNC
For B1, the “threshold temperature for Iheat activation” value (PRL 40 nM for 5 min, n=16, vehicle 41.9±0.67) was 36.8±0.58 °C, the “inward currents evoked by 43° C. (I43)” value (PRL pretreatment) was “significantly increased” and the “inward currents evoked by 48° C. (I48)” value (PRL pretreatment) was “significantly increased”.
